T1: human ICOS expressed on cells (human, UniProt Q9Y6W8 21-199)
T1 sequence: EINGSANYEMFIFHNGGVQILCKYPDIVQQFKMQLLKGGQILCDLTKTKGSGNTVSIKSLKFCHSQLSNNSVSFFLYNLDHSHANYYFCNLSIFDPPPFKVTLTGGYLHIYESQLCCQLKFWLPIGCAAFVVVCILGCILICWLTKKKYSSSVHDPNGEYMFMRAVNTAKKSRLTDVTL

T2: mouse ICOS-mFc (Chimerigen) (mouse, UniProt Q9WVS0 21-141, limits assumed)
T2 construct: Bought fusion; also called mICOS; recombinant mouse ICOS protein; not shown: mouse Fc
T2 sequence: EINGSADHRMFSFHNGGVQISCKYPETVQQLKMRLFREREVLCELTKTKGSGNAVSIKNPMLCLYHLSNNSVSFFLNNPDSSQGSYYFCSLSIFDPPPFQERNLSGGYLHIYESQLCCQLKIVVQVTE


Columns and labels:
[1] = target: T1, human ICOS expressed on cells; experiment: cell-based or functional assay
[2] = target: T1, human ICOS expressed on cells; experiment: cell-based or functional assay; remark: listed apart in the source
[3] = target: FcγRIIIa on Jurkat NFAT luciferase v-variant effector cells (Promega) (human, UniProt P08637 17-254); experiment: cell-based or functional assay
Chain of FcγRIIIa on Jurkat NFAT luciferase v-variant effector cells (Promega) (P08637 other isoform, or with tags, fused parts or gaps mutant limits assumed): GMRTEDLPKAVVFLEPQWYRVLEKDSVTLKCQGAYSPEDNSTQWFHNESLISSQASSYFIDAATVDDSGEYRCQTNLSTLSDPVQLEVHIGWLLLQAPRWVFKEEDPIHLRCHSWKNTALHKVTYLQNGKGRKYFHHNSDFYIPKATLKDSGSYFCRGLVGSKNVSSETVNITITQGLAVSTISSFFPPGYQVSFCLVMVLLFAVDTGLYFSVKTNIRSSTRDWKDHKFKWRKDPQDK

[4] = target: T2, mouse ICOS-mFc (Chimerigen); experiment: DELFIA ELISA, coated mouse ICOS-mFc, mean
Procedure: Recombinant ICOS proteins, human ICOS-mFc or mouse ICOS-mFc (Chimerigen) were diluted in 1×PBS and added to Black Hi-bind plates (Griener) at 1 μg/ml, 50 μl/well. Recombinant PD-L1 proteins, human PD-L1-Flag-His or mouse-His were diluted in 1×PBS and added to Black Hi-bind plates (Griener) at 4 μg/ml, 50 μl/well. The plates were left overnight at 4° C. The next day plates were washed 3× with 300 μl/well of 1×PBS+0.1% Tween and blocked with 200 μl/well of 1×PBS+1% BSA blocking buffer for 1 hr at RT on a plate shaker. Plates were washed 3× with 300 μl/well of 1×PBS+0.1% Tween.
However, human-PD-L1 mAb² antibodies were diluted in 1×PBS+0.1% BSA buffer and diluted 1 in 2 from a starting working concentration of 0.066 μM over an 11 point titration. Titrated antibodies were added to the plates, 50 μl/well and left to incubate for 1 hr at R.T on a plate shaker. Plates were washed 3× with 300 μl/well of 1×PBS+0.1% Tween.
DELFIA® Eu-labelled Anti-human IgG(Perkin-Elmer) was diluted 1:500 in DELFIA Assay buffer (Perkin-Elmer) and added to the assay plate (50 μl/well), left to incubate for 1 hr at RT on a plate shaker. […] After incubation, assay was read on Envision plate reader (Perkin Elmer), Time-resolved fluorescence (TRF) was measured at 615 nm.

[5] = target: T3, human PD-L1 expressed on cells (human, UniProt Q9NZQ7 19-290); experiment: flow cytometry on CHO cells expressing human PD-L1, anti-human IgG PE detection
T3 construct: also called CHO human PD-L1; CHO-S cells transfected with human PD-L1
T3 sequence (Q9NZQ7 19-290 limits assumed): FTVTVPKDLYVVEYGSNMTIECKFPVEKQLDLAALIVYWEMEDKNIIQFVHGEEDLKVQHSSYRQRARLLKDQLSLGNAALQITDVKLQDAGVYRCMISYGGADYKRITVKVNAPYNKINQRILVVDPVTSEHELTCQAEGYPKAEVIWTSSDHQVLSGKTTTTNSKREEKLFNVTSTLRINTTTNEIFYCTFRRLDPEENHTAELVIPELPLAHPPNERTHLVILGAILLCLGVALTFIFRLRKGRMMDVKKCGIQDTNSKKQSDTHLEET
Procedure: (§1) CHO-S cells untransfected (referred to as WT) or transfected with the cDNA coding for human PD-L1 were diluted in FACS buffer (PBS+1% w/v BSA+0.1% w/v sodium azide) and were distributed to a 96-well V-bottom plate (Greiner) at a density of 5×10⁴ cells per well. […] Plates were centrifuged at 300×g for 3 minutes to supernatant aspirated. 50 μL antibody or mAb² solution were added to cells and incubated at 4° C. for 1 hour. Cells were washed with 150 μL of PBS and centrifuged at 300 g for 3 minutes. Supernatant was aspirated and 150 μL PBS added. This wash step was repeated. […] Cells were incubated for 1 hour at 4° C. in the dark. Cells were washed as previously described. To fix cells, 100 μL 4% v/v paraformaldehyde was added and cells incubated for 20 minutes at 4° C., cells were pelleted by centrifugation at 300×g and the plates resuspended in 100 μL FACS buffer.

[6] = target: T4, mouse PD-L1 expressed on CHO-S cells (mouse, UniProt Q9EP73 19-290); experiment: flow cytometry on CHO cells expressing mouse PD-L1, anti-human IgG PE detection
T4 construct: also called mPD-L1; CHO mouse PD-L1
T4 sequence (Q9EP73 19-290 limits assumed): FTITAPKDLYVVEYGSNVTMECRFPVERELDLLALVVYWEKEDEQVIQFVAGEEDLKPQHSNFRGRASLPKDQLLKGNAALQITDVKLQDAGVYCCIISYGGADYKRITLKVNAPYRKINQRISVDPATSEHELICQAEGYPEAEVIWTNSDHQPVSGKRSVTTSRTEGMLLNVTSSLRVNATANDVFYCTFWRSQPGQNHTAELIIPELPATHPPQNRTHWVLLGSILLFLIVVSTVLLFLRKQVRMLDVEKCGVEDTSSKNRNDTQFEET
Procedure: as §1, with “mPD-L1” for “the cDNA coding for human PD-L1”

| EC50, ADCC (BATDA dye release), ICOS-transfected CCRF-CEM targets, NK cells, Donor 326 [1] [nM] | EC50, ADCC (BATDA dye release), ICOS-transfected CCRF-CEM targets, NK cells, Donor 334 [1] [nM] | EC50, ADCC (BATDA dye release), ICOS-transfected CCRF-CEM targets, NK cells, Donor 341 [1] [nM] | EC50, ADCC (BATDA dye release), ICOS-transfected CCRF-CEM targets, NK cells, Median [1] [nM] | EC50 of IFN-γ release, plate-bound antibody, human T cells with CD3/CD28 beads, Median [2] [nM] | EC50 of IFN-γ release, plate-bound antibody, human T cells with CD3/CD28 beads, donor 276 [2] [nM] | EC50 of IFN-γ release, plate-bound antibody, human T cells with CD3/CD28 beads, donor 278 [2] [nM] | EC50 of IFN-γ release, plate-bound antibody, human T cells with CD3/CD28 beads, donor 289 [2] [nM] | EC50 of IFN-γ release, plate-bound antibody, human T cells with CD3/CD28 beads, donor 295 [2] [nM] | EC50, NFAT luciferase reporter, CHO human ICOS target cells, N=1 [3] [nM] | EC50, NFAT luciferase reporter, CHO human ICOS target cells, N=2 [3] [nM] | EC50, NFAT luciferase reporter, CHO human ICOS target cells, N=3 [3] [nM] | EC50, NFAT luciferase reporter, CHO human ICOS target cells, mean [3] [nM] | EC50, NFAT luciferase reporter, CHO mouse ICOS target cells, N=1 [3] [nM] | EC50, NFAT luciferase reporter, CHO mouse ICOS target cells, N=2 [3] [nM] | EC50, NFAT luciferase reporter, CHO mouse ICOS target cells, N=3 [3] [nM] | EC50, NFAT luciferase reporter, CHO mouse ICOS target cells, mean [3] [nM] | EC50 [4] [nM] | Binder | binding result [5] | binding result [6] |
| --- | --- | --- | --- | --- | --- | --- | --- | --- | --- | --- | --- | --- | --- | --- | --- | --- | --- | --- | --- | --- |
| 0.0309 | 0.0041 | ~0.0103 | 0.0175 | 9.45 | ~10 | 8.9 | 7.1 | 11.9 |  |  |  |  |  |  |  |  |  | STIM001_289 (bispecific antibody, V domains shown, not shown: a dimerising Fc or GST) VH: QVQVVQSGAEVKKPGASVKVSCKASGYTFSTFGITWVRQAPGQGLEWMGWISAYNGDTNYAQNLQGRVIMTTDTSTSTAYMELRSLRSDDTAVYYCARSSGHYYYYGMDVWGQGTTVTVSS VL: DIVMTQSPLSLPVTPGEPASISCRSSQSLLHSNEYNYLDWYLQKPGQSPQLLIFLGSNRASGVPDRFSGSGSGTDFTLKITRVEAEDVGIYYCMQSLQTPLTFGGGTKVEIK |  |  |
| 0.0111 | 0.0183 | 0.0066 | 0.012 | 8.1 | ~6 | ~3.8 | 10.2 | 12.7 |  |  |  |  |  |  |  |  |  | STIM003_289 (bispecific antibody, V domains shown, not shown: a dimerising Fc or GST) VH: EVQLVESGGGVVRPGGSLRLSCVASGVTFDDYGMSWVRQAPGKGLEWVSGINWNGGDTDYSDSVKGRFTISRDNAKNSLYLQMNSLRAEDTALYYCARDFYGSGSYYHVPFDYWGQGILVTVSS VL: EIVLTQSPGTLSLSPGERATLSCRASQSVSRSYLAWYQQKRGQAPRLLIYGASSRATGIPDRFSGDGSGTDFTLSISRLEPEDFAVYYCHQYDMSPFTFGPGTKVDIK |  |  |
| 0.0426 | 0.0205 | 0.0076 | 0.0236 | 10.7 | ~9.9 | ~10.2 | ~11.2 | 14.5 | 0.456 | 0.247 | 0.147 | 0.283 | 0.479 | 0.534 | 0.579 | 0.53 | 10.6 | STIM001 (antibody, human IgG1, kappa, also called STIM001 IgG1; STIM0001) heavy: not shown light: DIVMTQSPLSLPVTPGEPASISCRSSQSLLHSNEYNYLDWYLQKPGQSPQLLIFLGSNRASGVPDRFSGSGSGTDFTLKITRVEAEDVGIYYCMQSLQTPLTFGGGTKVEIKRTVAAPSVFIFPPSDEQLKSGTASVVCLLNNFYPREAKVQWKVDNALQSGNSQESVTEQDSKDSTYSLSSTLTLSKADYEKHKVYACEVTHQGLSSPVTKSFNRGEC | no binding (tested: about 2e-7 M (log M -6.7)) | no binding (tested: about 2e-8 M (log M -7.7)) |
| 0.0212 | 0.0037 | 0.0067 | 0.0105 | 5.55 | 7.1 | 3.8 | ~4 | ~11.6 | 0.326 | 0.477 | 0.24 | 0.347 | 0.508 | 0.754 | 0.703 | 0.655 |  | STIM003 (antibody, human IgG1, kappa, also called STIM003 IgG1) heavy: not shown light: EIVLTQSPGTLSLSPGERATLSCRASQSVSRSYLAWYQQKRGQAPRLLIYGASSRATGIPDRFSGDGSGTDFTLSISRLEPEDFAVYYCHQYDMSPFTFGPGTKVDIKRTVAAPSVFIFPPSDEQLKSGTASVVCLLNNFYPREAKVQWKVDNALQSGNSQESVTEQDSKDSTYSLSSTLTLSKADYEKHKVYACEVTHQGLSSPVTKSFNRGEC | no binding (tested: about 2e-7 M (log M -6.7)) | no binding (tested: about 2e-8 M (log M -7.7)) |

Source: patent publication US20260049143A1 (KYMAB, published 2026)
